Assay results as given in the supplement of paper PMC10065799, “High-throughput profiling of sequence recognition by tyrosine kinases and SH2 domains using bacterial peptide display” (eLife, 2023).

Columns and labels:
c-Src SH2 = test: SH2 binding enrichment of the phosphorylated peptide, bacterial display (enrichment ratio); higher = better substrate or ligand; peptides without Tyr show the background
SHP2-C SH2 = test: as above
Grb2 SH2 = Grb2 SH2 (UniProt P62993); test: as above
FGFR1 = FGFR1 (UniProt P11362); test: phosphorylation enrichment, bacterial display (enrichment ratio); higher = better substrate or ligand; peptides without Tyr show the background
Fer (mouse) = test: as above
c-Abl (mouse) = test: as above
Fyn = Fyn (UniProt P06241); test: as above
Jak2 = Jak2 (UniProt O60674); test: as above
Chain of Jak2 (O60674 whole entry, looked up): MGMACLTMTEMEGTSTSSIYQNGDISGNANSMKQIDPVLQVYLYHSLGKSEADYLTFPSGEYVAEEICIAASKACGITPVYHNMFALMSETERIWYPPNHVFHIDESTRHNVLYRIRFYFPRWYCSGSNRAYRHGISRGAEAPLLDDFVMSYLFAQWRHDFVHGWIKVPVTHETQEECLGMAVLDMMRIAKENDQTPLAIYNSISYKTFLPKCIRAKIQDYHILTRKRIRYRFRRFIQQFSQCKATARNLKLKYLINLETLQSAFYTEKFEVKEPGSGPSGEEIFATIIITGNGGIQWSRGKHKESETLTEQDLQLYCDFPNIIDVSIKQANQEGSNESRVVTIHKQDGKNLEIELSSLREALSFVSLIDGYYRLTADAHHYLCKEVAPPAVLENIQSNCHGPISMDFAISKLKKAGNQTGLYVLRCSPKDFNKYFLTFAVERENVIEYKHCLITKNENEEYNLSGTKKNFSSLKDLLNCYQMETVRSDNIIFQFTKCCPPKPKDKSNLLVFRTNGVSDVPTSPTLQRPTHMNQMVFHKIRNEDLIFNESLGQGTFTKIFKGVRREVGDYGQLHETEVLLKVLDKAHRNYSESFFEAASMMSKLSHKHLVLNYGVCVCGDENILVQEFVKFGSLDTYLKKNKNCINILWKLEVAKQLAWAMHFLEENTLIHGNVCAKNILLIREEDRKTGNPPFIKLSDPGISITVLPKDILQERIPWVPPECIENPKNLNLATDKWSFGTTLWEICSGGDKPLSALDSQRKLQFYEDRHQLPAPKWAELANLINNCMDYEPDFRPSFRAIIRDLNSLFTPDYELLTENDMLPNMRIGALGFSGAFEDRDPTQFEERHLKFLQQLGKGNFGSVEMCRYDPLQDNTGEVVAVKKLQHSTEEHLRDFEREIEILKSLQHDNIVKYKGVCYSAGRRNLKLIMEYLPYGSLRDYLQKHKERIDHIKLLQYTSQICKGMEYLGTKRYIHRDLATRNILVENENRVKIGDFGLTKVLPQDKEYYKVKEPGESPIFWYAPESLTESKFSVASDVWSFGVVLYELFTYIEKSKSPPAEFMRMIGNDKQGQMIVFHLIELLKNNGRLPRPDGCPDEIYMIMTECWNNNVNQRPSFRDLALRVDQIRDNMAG

MERTK = MERTK (UniProt Q12866); test: as above
Chain of MERTK (Q12866 whole entry, looked up): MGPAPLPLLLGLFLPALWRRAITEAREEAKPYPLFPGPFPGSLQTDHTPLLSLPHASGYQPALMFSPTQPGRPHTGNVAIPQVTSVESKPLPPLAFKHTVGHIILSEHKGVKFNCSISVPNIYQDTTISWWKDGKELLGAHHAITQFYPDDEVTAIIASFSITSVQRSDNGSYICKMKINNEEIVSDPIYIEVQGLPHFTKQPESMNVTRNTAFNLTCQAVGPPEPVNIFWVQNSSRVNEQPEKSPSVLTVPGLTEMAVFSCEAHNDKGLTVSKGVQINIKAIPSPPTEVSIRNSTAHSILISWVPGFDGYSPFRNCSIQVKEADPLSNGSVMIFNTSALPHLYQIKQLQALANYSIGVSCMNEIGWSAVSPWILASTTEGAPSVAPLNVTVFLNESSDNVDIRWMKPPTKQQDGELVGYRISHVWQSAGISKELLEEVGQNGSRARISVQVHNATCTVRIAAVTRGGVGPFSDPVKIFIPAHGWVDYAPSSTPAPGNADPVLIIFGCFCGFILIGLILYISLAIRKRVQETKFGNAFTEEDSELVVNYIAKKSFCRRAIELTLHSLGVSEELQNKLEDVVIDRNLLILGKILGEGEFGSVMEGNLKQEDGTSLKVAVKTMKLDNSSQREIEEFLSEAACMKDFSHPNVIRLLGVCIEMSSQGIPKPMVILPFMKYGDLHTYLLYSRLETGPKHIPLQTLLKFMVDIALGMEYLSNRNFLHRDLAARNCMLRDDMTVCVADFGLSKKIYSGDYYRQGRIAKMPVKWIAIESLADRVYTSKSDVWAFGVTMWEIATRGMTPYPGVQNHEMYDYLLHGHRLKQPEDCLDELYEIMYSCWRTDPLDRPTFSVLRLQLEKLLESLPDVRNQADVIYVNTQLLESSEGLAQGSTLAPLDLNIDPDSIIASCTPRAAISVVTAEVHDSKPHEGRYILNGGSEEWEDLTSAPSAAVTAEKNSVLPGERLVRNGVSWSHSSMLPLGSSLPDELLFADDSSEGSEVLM

FGFR3 = FGFR3 (UniProt P22607); test: as above
Chain of FGFR3 (P22607 whole entry, looked up): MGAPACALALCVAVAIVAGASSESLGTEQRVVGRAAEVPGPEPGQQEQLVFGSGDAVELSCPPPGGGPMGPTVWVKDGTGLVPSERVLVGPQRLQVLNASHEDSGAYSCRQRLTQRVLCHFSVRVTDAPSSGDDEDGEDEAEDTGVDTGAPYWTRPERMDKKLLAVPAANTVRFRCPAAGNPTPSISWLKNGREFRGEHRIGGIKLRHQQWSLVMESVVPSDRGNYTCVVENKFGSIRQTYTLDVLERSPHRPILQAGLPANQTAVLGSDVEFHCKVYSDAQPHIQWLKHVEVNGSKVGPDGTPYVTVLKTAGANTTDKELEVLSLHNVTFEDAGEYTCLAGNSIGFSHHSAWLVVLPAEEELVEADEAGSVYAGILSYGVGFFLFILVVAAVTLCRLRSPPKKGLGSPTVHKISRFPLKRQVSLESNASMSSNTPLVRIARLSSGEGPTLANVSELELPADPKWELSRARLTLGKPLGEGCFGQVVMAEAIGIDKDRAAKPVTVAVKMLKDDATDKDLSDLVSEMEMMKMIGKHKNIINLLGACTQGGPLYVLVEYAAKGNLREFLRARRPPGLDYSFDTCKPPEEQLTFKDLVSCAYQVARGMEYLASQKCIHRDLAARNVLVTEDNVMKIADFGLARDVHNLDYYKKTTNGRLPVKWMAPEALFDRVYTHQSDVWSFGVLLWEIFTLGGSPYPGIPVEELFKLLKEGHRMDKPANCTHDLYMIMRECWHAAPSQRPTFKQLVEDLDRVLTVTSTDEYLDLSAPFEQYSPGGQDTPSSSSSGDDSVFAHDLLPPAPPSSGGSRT

EPHB2 = EPHB2 (UniProt P29323); test: as above
Chain of EPHB2 (P29323 whole entry, looked up): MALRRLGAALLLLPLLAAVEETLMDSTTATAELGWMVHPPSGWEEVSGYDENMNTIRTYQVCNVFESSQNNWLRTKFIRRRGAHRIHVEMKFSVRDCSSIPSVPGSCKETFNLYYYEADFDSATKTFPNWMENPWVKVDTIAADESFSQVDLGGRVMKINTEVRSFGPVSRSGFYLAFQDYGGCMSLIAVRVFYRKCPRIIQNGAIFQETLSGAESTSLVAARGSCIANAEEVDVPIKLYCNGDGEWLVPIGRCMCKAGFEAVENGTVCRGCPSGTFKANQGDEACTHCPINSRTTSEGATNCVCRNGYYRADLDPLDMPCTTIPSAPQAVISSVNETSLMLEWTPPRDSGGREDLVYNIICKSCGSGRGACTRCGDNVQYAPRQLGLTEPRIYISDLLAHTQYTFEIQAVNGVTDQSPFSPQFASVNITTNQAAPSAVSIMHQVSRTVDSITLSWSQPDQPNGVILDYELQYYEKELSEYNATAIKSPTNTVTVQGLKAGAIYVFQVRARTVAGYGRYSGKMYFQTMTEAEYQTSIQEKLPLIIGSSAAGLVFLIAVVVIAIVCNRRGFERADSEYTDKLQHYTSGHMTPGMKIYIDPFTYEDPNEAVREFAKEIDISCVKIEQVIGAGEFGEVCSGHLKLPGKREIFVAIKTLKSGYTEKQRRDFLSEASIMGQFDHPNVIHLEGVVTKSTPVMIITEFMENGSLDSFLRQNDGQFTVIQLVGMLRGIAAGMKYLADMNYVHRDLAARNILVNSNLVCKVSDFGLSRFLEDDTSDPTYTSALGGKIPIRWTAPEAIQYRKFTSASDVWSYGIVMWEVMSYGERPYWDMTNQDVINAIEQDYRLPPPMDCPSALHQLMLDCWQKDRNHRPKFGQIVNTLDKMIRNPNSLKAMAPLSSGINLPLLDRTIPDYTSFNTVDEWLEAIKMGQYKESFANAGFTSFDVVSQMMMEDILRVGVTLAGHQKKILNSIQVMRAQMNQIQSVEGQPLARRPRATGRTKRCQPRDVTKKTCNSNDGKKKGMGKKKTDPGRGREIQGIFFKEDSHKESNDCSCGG

Fes = Fes (UniProt P07332); test: as above
Chain of Fes (P07332 whole entry, looked up): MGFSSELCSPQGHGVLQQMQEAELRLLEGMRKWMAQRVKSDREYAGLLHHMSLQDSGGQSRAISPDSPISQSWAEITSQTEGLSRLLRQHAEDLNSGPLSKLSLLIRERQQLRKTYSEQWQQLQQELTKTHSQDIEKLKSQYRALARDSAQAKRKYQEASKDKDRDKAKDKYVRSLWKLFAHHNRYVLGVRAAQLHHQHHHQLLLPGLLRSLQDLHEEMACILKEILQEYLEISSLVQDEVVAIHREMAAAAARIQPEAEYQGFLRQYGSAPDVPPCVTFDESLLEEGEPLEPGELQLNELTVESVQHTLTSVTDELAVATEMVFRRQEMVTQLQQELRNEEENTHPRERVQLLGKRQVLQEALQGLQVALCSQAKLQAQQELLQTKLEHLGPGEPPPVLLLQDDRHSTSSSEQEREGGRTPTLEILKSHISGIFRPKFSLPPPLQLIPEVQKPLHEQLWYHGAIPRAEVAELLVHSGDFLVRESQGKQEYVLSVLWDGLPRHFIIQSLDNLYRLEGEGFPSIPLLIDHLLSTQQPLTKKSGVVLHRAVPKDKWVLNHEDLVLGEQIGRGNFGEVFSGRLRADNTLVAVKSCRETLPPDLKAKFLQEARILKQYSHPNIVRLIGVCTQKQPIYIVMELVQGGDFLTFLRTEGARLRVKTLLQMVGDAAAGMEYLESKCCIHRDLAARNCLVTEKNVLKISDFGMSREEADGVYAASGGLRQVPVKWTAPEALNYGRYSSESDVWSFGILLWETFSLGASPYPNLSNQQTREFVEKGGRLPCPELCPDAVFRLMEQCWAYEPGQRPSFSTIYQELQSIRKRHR

c-Src = test: as above
AncSZ = test: as above
EPHB1 = EPHB1 (UniProt P54762); test: as above
Hck = Hck (UniProt P08631); test: as above
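For SH2 binding enrichment of the phosphorylated peptide, bacterial display in this document: peptide library displayed on the E. coli surface as eCPX fusions, selected cells deep-sequenced, score is each peptide's frequency after selection divided by its frequency in the input.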
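For phosphorylation enrichment, bacterial display in this document: 11-residue human phosphosite peptides and single-mutation variants displayed on the E. coli surface, counted by deep sequencing, each peptide's frequency after selection divided by its frequency in the unselected input library; frequency after pTyr selection over input frequency; kinase dosed for 20-30% of maximal phosphorylation in three min.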

| SH2 binding enrichment (c-Src SH2) | SH2 binding enrichment (SHP2-C SH2) | SH2 binding enrichment (Grb2 SH2) | Sequence | phosphorylation enrichment (FGFR1) | phosphorylation enrichment (Fer (mouse)) | phosphorylation enrichment (c-Abl (mouse)) | phosphorylation enrichment (Fyn) | phosphorylation enrichment (Jak2) | phosphorylation enrichment (MERTK) | phosphorylation enrichment (FGFR3) | phosphorylation enrichment (EPHB2) | phosphorylation enrichment (Fes) | phosphorylation enrichment (c-Src) | phosphorylation enrichment (AncSZ) | phosphorylation enrichment (EPHB1) | phosphorylation enrichment (Hck) |
| --- | --- | --- | --- | --- | --- | --- | --- | --- | --- | --- | --- | --- | --- | --- | --- | --- |
| 0.986 | 0.764 | 0.834 | STDDGYIDLQF [TMEM230_Y29] | 1.01 | 0.584 | 0.695 | 0.564 | 1.19 | 0.513 | 1.01 | 0.472 | 1.09 | 0.488 | 1.22 | 0.701 | 0.521 |
| 0.471 | 0.757 | 0.813 | EALDFYGEVKT [PTEN_Y155_R159K] | 0.53 | 0.78 | 0.844 | 1.2 | 1.6 | 0.409 | 0.823 | 0.722 | 1.56 | 1.21 | 1.19 | 0.719 | 1.15 |
| 0.57 | 0.873 | 1.01 | AFLQTYSHEVS [PCDHGA5_Y753] | 0.442 | 0.531 | 0.518 | 0.602 | 0.957 | 0.585 | 0.683 | 0.64 | 0.971 | 0.812 | 0.845 | 0.584 | 0.551 |
| 0.55 | 0.506 | 0.89 | VERRVYAEDPY [PCCA_Y401_C398R] | 0.631 | 0.424 | 0.566 | 0.764 | 0.663 | 0.46 | 0.664 | 0.507 | 0.962 | 0.681 | 0.826 | 0.459 | 0.566 |
| 0.47 | 0.852 | 0.677 | FSCLPYRRLAF [SLC52A2_Y305_G306R_YF] | 0.478 | 0.411 | 0.63 | 0.559 | 0.806 | 0.531 | 0.568 | 0.589 | 0.826 | 0.902 | 0.992 | 0.428 | 0.432 |
| 0.93 | 0.765 | 1.08 | TQRPYYKGGGG [TYROBP_Y112] | 0.558 | 0.419 | 0.573 | 0.417 | 0.537 | 0.553 | 0.455 | 0.303 | 0.666 | 0.438 | 0.49 | 0.39 | 0.377 |

The next lines start with the sequence.

| Sequence | SH2 binding enrichment (c-Src SH2) | SH2 binding enrichment (SHP2-C SH2) | SH2 binding enrichment (Grb2 SH2) | phosphorylation enrichment (FGFR1) | phosphorylation enrichment (Fer (mouse)) | phosphorylation enrichment (c-Abl (mouse)) | phosphorylation enrichment (Fyn) | phosphorylation enrichment (Jak2) | phosphorylation enrichment (MERTK) | phosphorylation enrichment (FGFR3) | phosphorylation enrichment (EPHB2) | phosphorylation enrichment (Fes) | phosphorylation enrichment (c-Src) | phosphorylation enrichment (AncSZ) | phosphorylation enrichment (EPHB1) | phosphorylation enrichment (Hck) |
| --- | --- | --- | --- | --- | --- | --- | --- | --- | --- | --- | --- | --- | --- | --- | --- | --- |
| SGGSSYGSGGG [KRT1_Y532] | 0.427 | 0.527 | 0.871 | 0.411 | 0.397 | 0.633 | 0.382 | 0.537 | 0.362 | 0.389 | 0.396 | 0.583 | 0.449 | 0.506 | 0.381 | 0.396 |
| NNHGNYIVHLG [ETFDH_Y172_R175H] | 0.587 | 0.856 | 0.863 | 0.623 | 0.712 | 0.53 | 0.525 | 0.583 | 0.493 | 0.537 | 2.19 | 0.698 | 0.391 | 0.71 | 4.2 | 0.511 |
| RTLIRYAKLGN [BEST1_Y131_N133K] | 0.765 | 1.11 | 1.14 | 0.632 | 0.561 | 1.07 | 0.848 | 1.23 | 1.02 | 0.612 | 0.775 | 1.27 | 1.02 | 1.4 | 0.854 | 0.849 |
| GGQVFYNSEYG [FLT4_Y1333] | 0.435 | 0.707 | 0.648 | 0.376 | 0.36 | 0.497 | 0.456 | 0.751 | 0.467 | 0.558 | 0.442 | 0.779 | 0.521 | 0.719 | 0.402 | 0.462 |
| MARDIYRASYY [ALK_Y1278] | 0.839 | 0.708 | 0.877 | 0.624 | 0.408 | 1.77 | 0.688 | 0.702 | 0.673 | 0.63 | 0.439 | 0.683 | 1.58 | 0.685 | 0.466 | 1.01 |
| EMTRNYIIFIE [BCO2_Y294_G289E] | 0.625 | 0.903 | 1.19 | 0.575 | 0.487 | 0.572 | 0.586 | 1.06 | 0.513 | 0.683 | 0.569 | 1.08 | 0.464 | 1.1 | 0.51 | 0.534 |
| NDKLRYEVSSP [CDH13_Y66] | 0.473 | 0.567 | 0.711 | 0.475 | 0.443 | 0.692 | 0.421 | 0.884 | 0.451 | 0.615 | 0.502 | 1.01 | 0.438 | 1.14 | 0.473 | 0.502 |
| HESEIYCKVCF [CSRP3_Y57_YF] | 1.54 | 1.35 | 1.44 | 0.821 | 2.49 | 1.17 | 5.35 | 1.21 | 3.7 | 0.89 | 1.42 | 1.11 | 6.41 | 1.52 | 0.854 | 7.63 |
| DDKQPYEKKAE [HMGB1_Y144_A149E] | 0.736 | 0.756 | 1.09 | 0.529 | 0.464 | 0.828 | 0.53 | 0.921 | 0.515 | 0.631 | 0.645 | 1.04 | 0.43 | 1.12 | 0.516 | 0.579 |
| TKYVAYIESQG [KDM4B_Y34_N29T] | 0.675 | 8.32 | 0.8 | 0.541 | 0.432 | 0.508 | 0.546 | 0.498 | 0.331 | 0.608 | 0.611 | 0.828 | 0.418 | 0.924 | 0.456 | 0.485 |
